Assay results reported in PMC8915838.

How the values were obtained:
[1] = biological target: leukotriene A4 hydrolase (LTA4H) (UniProt P09960); experiment: SPR
[2] = biological target: trypsin; experiment: enzyme inhibition
[3] = biological target: leukotriene A4 hydrolase (LTA4H) (UniProt P09960); experiment: enzyme inhibition
[4] = biological target: plasmin; experiment: enzyme inhibition

In the case of “MTX, immunosuppressant protein from the submandibular salivary glands of the bat Myotis pilosus (natural protein)”, the Kd [1] is reported as 0.45 nM, the Ki [2] is reported as 67.5 nM and the Ki [3] is reported as 1230 nM. The Ki [4] was 80 nM.
